Assay results as given in patent publication US20230303623A1, “PEPTIDES AND METHODS OF USE” (REALTA LIFE SCIENCES, INC., priority 2020, published 2023).
“Also recorded” adds a separate entry of the source.

Columns and labels:
C1q = molecular target: T1, C1q (Homo sapiens, UniProt P02745+P02746+P02747); test: C1q binding ELISA-type assay; conditions: compared to parent peptide
T1 construct: purchased Complement Technology (Tyler, TX)
Experimental: The C1q binding assay was performed as previously described. Briefly, an Immunlon-2 HB ELISA plate was coated with 1 μg/ml C1q in bicarbonate buffer overnight at 4° C. The plates were washed with PBS-T (phosphate buffered saline+0.1% Tween) and then blocked with 1% gelatin/PBS for 2 hours at room temperature. After washing, the plates were incubated with the peptides starting at 2.5 mg/ml and then serially diluted in 1% gelatin/PBS for 1 hour at room temperature followed by washing. Plates were then probed with rabbit antibody raised against the lead peptide […] (SEQ ID NO: 2) that lacked PEGylation at 1:1000 in 1% gelatin/PBS for 1 hour at room temperature followed by a goat anti-rabbit HRP (Sigma Aldrich, St Louis, MO) at 1:1,000 in 1% gelatin/PBS for 1 hour at room temperature with a washing step in between. After addition of TMB substrate solution to the wells, the reaction was stopped using 1N H2SO4, and the plate read on a BioTek Synergy HT plate reader at 450 nm.
The astrovirus capsid protein and the PIC1 molecules derived from it inhibit classical complement pathway activation by binding to the pattern recognition molecule C1q. The inventors next tested peptide variant binding to C1q in an ELISA-type assay in which C1q is used as the capture substrate and bound peptide detected with a rabbit polyclonal antibody against the peptide portion of PA-dPEG24 ([…]-d24; SEQ ID NO: 3). Binding curves were derived for the stapled and D-amino acid peptides based on the PA-I8Sar and PA-C9Sar (FIG. 5A-5C) backbone, from which half-maximal binding concentrations were calculated (FIGS. 2A and B, respectively). […] For the peptides based on the PA-C9Sar backbone, C1q was bound to a greater degree than the parent peptide (FIG. 2B).

VEGF [1] = molecular target: T2, VEGF (Homo sapiens, UniProt P15692); test: VEGF binding ELISA plate-based assay; conditions: peptides 1 mg/ml
T2 construct: Promega (bioassay)
T2 sequence (P15692 27-191 isoform P15692-4): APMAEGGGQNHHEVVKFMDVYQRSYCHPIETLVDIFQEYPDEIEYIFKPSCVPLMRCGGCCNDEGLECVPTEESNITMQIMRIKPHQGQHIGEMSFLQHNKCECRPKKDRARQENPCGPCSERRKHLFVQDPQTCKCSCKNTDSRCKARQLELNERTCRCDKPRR
Experimental: A fixed amount of PIC1 peptides (1 mg/ml) were added to the plates followed by a rabbit polyclonal antibody that recognizes the peptides and then a secondary anti-rabbit antibody conjugated with HRP. The plate was then developed by addition of TMB as the substrate for the colorimetric assay.
(§1) Angiogenesis, or the formation of new blood vessels from the established vasculature, is an essential element in tumor growth and metastasis formation. Inhibiting tumor angiogenesis is considered a major therapeutic strategy in oncology. […] The bioluminescent signal is detected in a luminometer.

VEGF [2] = molecular target: T2, VEGF; test: VEGF Bioassay (Promega), VEGF signaling via VEGFR-2 (KDR); assay type: cell-based
Source text: Luminescence was detected in luminometer plate reader.
as §1

[3] = test system: classical complement pathway activation (C1q with C1r and C1s from A-498 cells); test: Classical complement activation by A-498 cell supernatant, C4a ELISA; assay type: biochemical, human; conditions: increasing doses 0-8 mg/ml; listed as RLS-0122
Experimental: Supernatants from A-498 cells were added to purified human C1q pre-incubated with increasing doses of RLS-0122 or RLS-0174 and loaded onto an IgG coated plate. Samples were then incubated for 1 hour at 37° C. After incubation samples were washed 3 times with PBS-T before the addition of purified human C4 (4 ug/ml) and incubated for 1.5 hours at 37° C. The supernatants were collected for analysis on Quidel's MicroVue Complement C4a ELISA.
Effective clear-cell renal cell carcinoma (ccRCC) therapies are needed, particularly at the metastatic stage when surgery is ineffective. Complement is a key factor in tissue inflammation, favoring cancer progression through the production of complement component 5a (C5a) (Roumenina et al., Cancer Immunol Res; 7(7) July 2019). Using data mining techniques, ccRCC has been identified as a cancer type expressing concomitantly high expression of the components that are part of the classical complement pathway. High densities of cells producing classical complement pathway components C1q and C4 and the presence of C4 activation fragment deposits in primary tumors are often correlated with poor prognosis. […] The inventors tested the ability of RLS-0122 to block complement activation in human kidney carcinoma cell line A498 system in vitro as assessed by the reduction in C4a levels. […]

TC-1 cells = test: TC-1 tumor cell model in C57Bl/6 mice; assay type: in vivo, mouse
Experimental: Animals were injected with 4×10^5 TC-1 cells subcutaneously into the flank of the animal. Five days later, animals received vehicle treatment with saline (n=6), or drug treatment with RLS-0122 (n=8) IV at 160 mg/kg 1×/day for 15 consecutive days. Animals were also evaluated for behavior and body condition scoring every 2 days for duration of the study. If scoring reached 7 or below, animals were assessed daily. A score of 5 or below was considered endpoint for euthanasia.
To evaluate the efficacy of RLS-0122 in an in vivo system, the inventors utilized the TC-1 tumor cell model in C57Bl/6 mice as previously reported (Roumenina et al., Cancer Immunol Res; 7(7) July 2019). […] When TC-1 cells are introduced into the flank of the mouse, very aggressive tumor formation occurs, resulting in 100% death in approximately 26 days. To test the efficacy of RLS-0122 on survival and quality of life in this model, animals were injected with 4×10^5 TC-1 cells subcutaneously into the flank of the animal. Five days later, animals received vehicle treatment with saline (n=6), or drug treatment with RLS-0122 (n=8) IV at 160 mg/kg 1×/day for 15 consecutive days. […] Animals were also evaluated for behavior and body condition scoring every 2 days for duration of the study. If scoring reached 7 or below, animals were assessed daily. A score of 5 or below was considered endpoint for euthanasia.

T1 sequence (P02745 23-245): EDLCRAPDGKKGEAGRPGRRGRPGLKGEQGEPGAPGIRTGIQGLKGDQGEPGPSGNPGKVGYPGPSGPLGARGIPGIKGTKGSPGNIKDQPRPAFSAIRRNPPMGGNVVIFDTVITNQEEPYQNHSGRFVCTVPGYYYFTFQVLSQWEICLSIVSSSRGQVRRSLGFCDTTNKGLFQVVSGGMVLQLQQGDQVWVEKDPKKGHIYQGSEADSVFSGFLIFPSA
T1 sequence (P02746 28-253): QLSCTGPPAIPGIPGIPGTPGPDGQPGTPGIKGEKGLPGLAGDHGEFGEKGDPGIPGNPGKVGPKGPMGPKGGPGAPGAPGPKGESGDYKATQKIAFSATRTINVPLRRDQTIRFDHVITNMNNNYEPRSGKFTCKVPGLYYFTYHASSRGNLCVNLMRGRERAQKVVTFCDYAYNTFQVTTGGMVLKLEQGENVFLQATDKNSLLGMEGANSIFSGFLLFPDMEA
T1 sequence (P02747 29-245): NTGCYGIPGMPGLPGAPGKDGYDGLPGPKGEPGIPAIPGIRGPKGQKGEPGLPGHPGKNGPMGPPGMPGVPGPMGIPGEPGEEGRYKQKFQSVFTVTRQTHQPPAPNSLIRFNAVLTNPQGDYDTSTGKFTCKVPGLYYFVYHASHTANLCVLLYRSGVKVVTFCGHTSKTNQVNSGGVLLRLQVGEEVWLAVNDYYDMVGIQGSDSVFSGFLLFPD

IAdLILEP(Sar)CCQERAA (IALILEPXCCQERAA; D-Leu; sarcosine; MOD_RES (3)..(3) D-amino acid; MOD_RES (8)..(8) Sarcosine) [PA-0122]
binding to C1q (binding curves, half-maximal binding), in words (C1q): markedly increased binding to C1q | binding to VEGF, in words (VEGF [1]): binding with high affinity | inhibition of VEGF signaling via VEGFR-2 (luminescence), in words (VEGF [2]): did not inhibit signaling | C4a generation, in words [3]: dose-dependently reduced the level of C4a generation; also recorded: can inhibit classical complement pathway activation | median survival longer than vehicle (TC-1 cells; IV 160 mg/kg 1x/day for 15 consecutive days, p=0.0465): 8 days | quality of life (behavior and body condition scoring), in words (TC-1 cells; IV 160 mg/kg 1x/day for 15 days, significant on days 22-26 (p<0.05)): increased quality of life
